Holding throughout (assay): EMSA
Data set [1] concerns the target T1, MdEIL2 DNA-binding domain (His-MBP fusion) (UniProt D5L145 1-311).
T1 sequence: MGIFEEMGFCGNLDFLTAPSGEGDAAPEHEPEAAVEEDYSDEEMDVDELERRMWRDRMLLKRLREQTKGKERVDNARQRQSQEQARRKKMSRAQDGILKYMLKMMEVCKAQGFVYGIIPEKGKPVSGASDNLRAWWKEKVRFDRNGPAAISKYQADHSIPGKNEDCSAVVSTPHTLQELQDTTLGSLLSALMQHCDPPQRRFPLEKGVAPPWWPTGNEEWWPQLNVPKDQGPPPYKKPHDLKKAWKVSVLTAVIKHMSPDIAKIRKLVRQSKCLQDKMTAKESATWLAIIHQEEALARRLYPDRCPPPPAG

Data set [2] concerns the target T2, MdEIL3 DNA-binding domain (His-MBP fusion) (UniProt D5L146 1-311).
T2 sequence: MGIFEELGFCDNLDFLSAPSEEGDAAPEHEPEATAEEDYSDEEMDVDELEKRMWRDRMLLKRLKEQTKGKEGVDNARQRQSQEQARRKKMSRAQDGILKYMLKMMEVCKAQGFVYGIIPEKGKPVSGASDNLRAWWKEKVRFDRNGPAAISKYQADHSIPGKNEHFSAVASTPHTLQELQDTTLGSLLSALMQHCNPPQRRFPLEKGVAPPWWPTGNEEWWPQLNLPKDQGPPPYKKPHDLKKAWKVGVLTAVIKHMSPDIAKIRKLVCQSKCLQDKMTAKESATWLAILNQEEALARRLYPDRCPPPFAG

Data set [3] addresses T3, MdEIL1 DNA-binding domain (His-MBP fusion) (UniProt D5L144 1-311).
T3 sequence: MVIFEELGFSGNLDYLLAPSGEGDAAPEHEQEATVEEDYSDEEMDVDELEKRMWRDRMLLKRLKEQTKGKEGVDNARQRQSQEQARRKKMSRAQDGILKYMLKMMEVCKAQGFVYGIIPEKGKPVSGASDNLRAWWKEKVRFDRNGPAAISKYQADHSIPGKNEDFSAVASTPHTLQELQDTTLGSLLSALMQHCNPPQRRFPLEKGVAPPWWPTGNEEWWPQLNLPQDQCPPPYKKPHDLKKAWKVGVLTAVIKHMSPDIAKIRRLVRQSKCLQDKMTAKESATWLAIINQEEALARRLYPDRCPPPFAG

In a further data set the target is His-MBP (UniProt P0AEX9 27-396).

B1: proMdAFS1 MUT probe (dsDNA)
DNA 1: CCCACCCCTCCGGTAGCCTCTTTGATATCCCA
DNA 2: TGGGATATCAAAGAGGCTACCGGAGGGGTGGG
For the molecule B1, the binding result in data set [1], in data set [2] and in data set [3] was “no binding” throughout.

B2: proMdAFS1 WT probe (dsDNA)
DNA 1: CCCACCCCTCCGGAGATTCATTTGATATCCCA
DNA 2: TGGGATATCAAATGAATCTCCGGAGGGGTGGG
With B2, the binding result with His-MBP was “no binding”; in data set [1] it was “binds”; in data set [2], “binds”; in data set [3], “binds”.

Values taken from PMC11886506.
